Series [1] in a line: K-562 cytotoxicity assay (MTT). Conditions: human, K-562 cells, 100 uM. The series is classed as cell-based, human. How it is done:
The K-562 cell line (CRL-243, ATCC) has attained widespread use as a highly sensitive in vitro target for cytotoxicity assays. K-562 blasts are multipotential, hematopoietic malignant cells that spontaneously differentiate into recognizable progenitors of the erythrocytic, granulocytic and monocytic series (Lozzio, B B et al., Proc. Soc. Exp. Biol. Med. 166: 546-550, 1981).
K562 cells were plated at 5,000 cells/well in 96-well tissue culture clusters (Costar) in DMEM phenol-free growth medium (Life Technologies) supplemented with pyruvate and 10% serum (HyClone). Next day, human recombinant IL-TIF (Example 19), BSA control or retinoic acid (known to be cytotoxic to K562 cells) were added. Seventy-two hours later, the vital stain MTT (Sigma, St Louis, Mo.), a widely used indicator of mitochondrial activity and cell growth, was added to the cells at a final concentration of 0.5 mg/ml. […] is converted to a purple formazan derivative by mitochondrial dehydrogenases. Four hours later, converted MMP was solubilized by adding an equal volume of acidic, isopropanol (0.04N HCl in absolute isopropanol) to the wells. Absorbance was measured at 570 nm, with background subtraction at 650 nm. In this experimental setting, absorbance reflects cell viability. Results shown in Table 12 are expressed as % cytotoxicity.

Series [2] addresses T1, IL-TIF (Homo sapiens, UniProt Q9GZX6).
T1 sequence (Q9GZX6 34-179): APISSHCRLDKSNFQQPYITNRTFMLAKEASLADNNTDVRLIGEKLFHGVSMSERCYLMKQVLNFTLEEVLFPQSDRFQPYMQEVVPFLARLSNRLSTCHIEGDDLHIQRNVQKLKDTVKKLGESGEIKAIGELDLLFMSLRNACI
Nature of the series: Inhibition of IL-TIF reporter activation in MES 13 cells by Zcytor16-Fc4. Conditions: for LU w/10 μg/ml zcytoR16: zcytoR16 10 μg/ml. The format is cell-based. As for the experimental part: MES 13 cells (ATCC No. CRL-1927) were plated at 10,000 cells/well in 96-well tissue culture clusters (Costar) in DMEM growth medium (Life Technologies) supplemented with pyruvate and 10% serum (HyClone). Next day, the medium was switched to serum free DMEM medium by substituting 0.1% BSA (Fraction V; Sigma) for serum. This medium also contained the adenoviral construct KZ136 (below) that encodes a luciferase reporter mini-gene driven by SRE and STAT elements, at a 1000:1 multiplicity of infection (m.o.i.), i.e. 1000 adenoviral particles per cell. After allowing 24 h for the incorporation of the adenoviral construct in the cells, the media were changed and replaced with serum-free media. Human recombinant IL-TIF with or without a recombinant Zcytor16-Fc4 fusion was added at the indicated final concentration in the well (as described in Table 11, below). Dilutions of both the IL-TIF and Zcytor16-Fc4 were performed in serum-free medium. 0.1% BSA was added for a basal assay control. 4 h later, cells were lysed and luciferase activity, denoting activation of the reporter gene, was determined in the lysate using an Luciferase Assay System assay kit (Promega) and a Labsystems Luminoskan luminometer (Labsystems, Helsinki, Finland). Activity was expressed as luciferase units (LU) in the lysate.
The construction of the adenoviral KZ136 vector was as follows. The original KZ136 vector is disclosed in Poulsen, L K et al. J. Biol. Chem. 273:6228-6232, 1998. The CMV promoter/enhancer and SV40 pA sequences were removed from pACCMV.pLpA (T. C. Becker et al., […] 43:161-189, 1994.) and replaced with a linker containing Asp718/KpnI and HindIII sites (oligos ZC13252 (SEQ ID NO:26) and ZC13453 (SEQ ID NO:27)). The STAT/SRE driven luciferase reporter cassette was exised from vector KZ136 (Poulsen, L K et al., supra.).) as a Asp718/KpnI-HindIII fragment and inserted into the adapted pAC vector. Recombinant KZ136 Adenovirus was produced by transfection with JM17 Adenovirus into 293 cells as described in T. C. Becker et al. supra.). Plaque purified virus was amplified and used to infect cultured cells at 5-50 pfu/cell 12-48 hours before assay. Luciferase reporter assays were performed as described in 96 well microplates as per Poulsen, L K et al., supra.).

Series [3] deals with T1, IL-TIF. Briefly: COS cell secretion trap binding of Zcytor16sR/Fc4 to Class II cytokines. Further details: expressed in transfected cells; host or cells: COS cells. Conditions: 1-3 μg/ml Zcytor16sR-Fc4; COS cells transfected with IL-TIF cDNA. How it is done: COS cell transfections were performed as follows: A mixture of 0.5 μg DNA and 5 μl lipofectamine (Gibco BRL) in 92 ul serum free DMEM media (55 mg sodium pyruvate, 146 mg L-glutamine, 5 mg transferrin, 2.5 mg insulin, 1 μg selenium and 5 mg fetuin in 500 ml DMEM) was incubated at room temperature for 30 minutes and then 400 μl serum free DMEM media added. A 500 μl mixture was added onto COS cells plated on 12-well tissue culture plate at 1.5×10^5 COS cells/well and previously incubated for 5 hours at 37° C. An additional 500 μl 20% FBS DMEM media (100 ml FBS, 55 mg sodium pyruvate and 146 mg L-glutamine in 500 ml DMEM) was added and the plates were incubated overnight.
The secretion trap was performed as follows: Media was rinsed off cells with PBS and fixed for 15 minutes with 1.8% Formaldehyde in PBS. Cells were then washed with TNT (0.1M Tris-HCl, 0.15M NaCl, and 0.05% Tween-20 in H2O). Cells were permeated with 0.1% Triton-X in PBS for 15 minutes and washed again with TNT. […]

In series [4] the target is T1, IL-TIF. Briefly: IL-TIF antagonist activity in BaF3/CRF2-4/zcytor11 Alamar Blue proliferation assay. The settings on record: Zcytor16 at 10 μg/ml; IL-TIF at all concentrations (0.06-50 ng/ml). Set-up: the coding region. for human IL-TIF, without its stop codon; made in house; host or cells: BHK 570 cells. The series is classed as cell-based. The text has this:
Purified human IL-TIF-CEE (Example 19) was used to test for the presence of proliferation activity as described below. Purified humsn Zcytor16-Fc4 (Example 11) was used to antagonize the proliferative response of the IL-TIF in this assay as described below.
BaF3/CRF2-4/zcytor11 cells were spun down and washed in the complete media, described in Example 7A above, but without mIL-3 (hereinafter referred to as “mIL-3 free media”). The cells were spun and washed 3 times to ensure the removal of the mIL-3. Cells were then counted in a hemacytometer. Cells were plated in a 96-well format at 5000 cells per well in a volume of 100 μl per well using the mIL-3 free media.
Proliferation of the BaF3/CRF2-4/zcytor11 cells was assessed using IL-TIF-CEE protein diluted with mIL-3 free media to 50, 10, 2, 1, 0.5, 0.25, 0.13, 0.06 ng/ml concentrations. 100 μl of the diluted protein was added to the BaF3/CRF2-4/zcytor11 cells. […] Alamar Blue gives a fluourometric readout based on number of live cells, and is thus a direct measurement of cell proliferation in comparison to a negative control. […] Plates were read on the Fmax™ plate reader (Molecular Devices Sunnyvale, Calif.) using the SoftMax™ Pro program, at wavelengths 544 (Excitation) and 590 (Emmission). […] The response, as measured, was approximately 15-fold over background at the high end of 50 ng/ml down to a 2-fold induction at the low end of 0.06 ng/ml. […]

`CC1=C(/C=C/C(C)=C/C=C/C(C)=C/C(=O)O)C(C)(C)CCC1` [Retinoic acid, reference compound]: the cytotoxicity at 72 h, 100 µM in series [1] came to 62%.

B1: Zcytor16sR/Fc4: soluble human Zcytor16 polypeptide (residue 22 to 231 of SEQ ID NO:2) fused to a C-terminal Fc4 tag (protein)
chain: TQSTHESLKPQRVQFQSRNFHNILQWQPGRALTGNSSVYFVQYKIYGQRQWKNKEDCWGTQELSCDLTSETSDIQEPYYGRVRAASAGSYSEWSMTPRFTPWWETKIDPPVMNITQVNGSLLVILHAPNLPYRYQKEKNVSIEDYYELLYRVFIINNSLEKEQKVYEGAHRAVEIEALTPHSSYCVVAEIYQPMLDRRSQRSEERCVEIPEPRSSDKTHTCPPCPAPEAEGAPSVFLFPPKPKDTLMISRTPEVTCVVVDVSHEDPEVKFNWYVDGVEVHNAKTKPREEQYNSTYRVVSVLTVLHQDWLNGKEYKCKVSNKALPSSIEKTISKAKGQPREPQVYTLPPSRDELTKNQVSLTCLVKGFYPSDIAVEWESNGQPENNYKTTPPVLDSDGSFFLYSKLTVDKSRWQQGNVFSCSVMHEALHNHYTQKSLSLSPGK
On to B1, for which the “LU w/10 μg/ml zcytoR16” value amounted to 104 ± 2 LU with IL-TIF [2] (IL-TIF 0 ng/ml (basal BSA control)); 104 ± 4 LU in the series with IL-TIF [2] (IL-TIF 0.03 ng/ml); 99 ± 6 LU in the series with IL-TIF [2] (IL-TIF 0.3 ng/ml); 98 ± 15 LU with IL-TIF [2] (IL-TIF 3 ng/ml); 110 ± 3 LU with IL-TIF [2] (IL-TIF 30 ng/ml); 112 ± 30 LU with IL-TIF [2] (IL-TIF 300 ng/ml). Further, the “antagonism of the response to IL-TIF” value in the series with IL-TIF [2] (even at the highest dose of IL-TIF used) is recorded as “effectively blocks the response to IL-TIF”. The “binding of Zcytor16sR/Fc4 to cytokine-transfected COS cells” value with IL-TIF [3] is on record as “positive binding”. For the same molecule, the “response to IL-TIF in presence of Zcytor16” value with IL-TIF [4] is given as “brought down to background”.

The values above are taken from US7351555B2, “Mouse cytokine receptor Zcytor16” (ZymoGenetics, Inc., priority 2001, dated 2008).
